We go through four molecules from patent publication US12679878B2, “CRF2 receptor agonists and their use in therapy” (SANOFI, priority 2020, dated 2026).

Starred links: 1 amine or outer side, 2 acyl side, 3 side chain; linkers in the order of their positions; H or OH if unused. Non-standard residues stand in square brackets, D forms with d. Groups on a side chain read outwards from the residue. No end group written: not given here. *: point of attachment. C18 diacid = O=C(O)CCCCCCCCCCCCCCCCC(=O)*; γGlu = O=C(O)[C@H](CCC(=O)[*:2])N[*:1]; AEEA = NCCOCCOCC(=O)O; Aib = CC(C)(N)C(=O)O

One test has as its target rat CRF2R α receptor (rat, UniProt P47866 20-411). As to the kind of experiment: cell-based or functional assay.
The target in test [1] is T1, anti-target CRF1R receptor (UniProt P34998 24-415, limits assumed).
T1 sequence (looked up): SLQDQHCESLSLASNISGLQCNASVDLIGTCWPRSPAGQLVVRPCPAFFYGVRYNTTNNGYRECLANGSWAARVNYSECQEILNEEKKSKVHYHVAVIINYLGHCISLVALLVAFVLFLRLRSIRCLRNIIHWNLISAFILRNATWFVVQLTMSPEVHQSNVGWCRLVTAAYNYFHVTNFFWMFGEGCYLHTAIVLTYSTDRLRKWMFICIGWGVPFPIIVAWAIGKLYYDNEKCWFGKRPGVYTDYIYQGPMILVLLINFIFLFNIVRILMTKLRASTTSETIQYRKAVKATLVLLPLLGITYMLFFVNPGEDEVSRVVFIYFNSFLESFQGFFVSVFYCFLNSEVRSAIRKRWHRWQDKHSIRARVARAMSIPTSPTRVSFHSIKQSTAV
As to the kind of experiment: cell-based or functional assay.

Sequence of rat CRF2R α receptor (P47866 20-411): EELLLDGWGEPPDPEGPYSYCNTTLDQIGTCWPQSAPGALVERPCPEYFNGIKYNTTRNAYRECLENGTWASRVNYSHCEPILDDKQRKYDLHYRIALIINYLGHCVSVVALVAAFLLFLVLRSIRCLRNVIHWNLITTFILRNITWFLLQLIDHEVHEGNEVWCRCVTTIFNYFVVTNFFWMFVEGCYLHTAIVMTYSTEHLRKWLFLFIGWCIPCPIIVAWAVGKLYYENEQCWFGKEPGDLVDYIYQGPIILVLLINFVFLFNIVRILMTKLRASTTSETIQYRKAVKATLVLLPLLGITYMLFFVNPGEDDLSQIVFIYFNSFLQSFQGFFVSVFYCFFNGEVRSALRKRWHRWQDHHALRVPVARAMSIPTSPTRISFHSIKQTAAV

B1: peptide of SEQ ID NO: 165 (peptide)
peptide: Ac-IVLSLD[dV]PIKLK([AEEA-AEEA-γGlu-C18 diacid])QILLEQARQK[Aib]QREQAEKNEQILEQV-NH2
SMILES: CC[C@H](C)[C@H](NC(C)=O)C(=O)N[C@H](C(=O)N[C@@H](CC(C)C)C(=O)N[C@@H](CO)C(=O)N[C@@H](CC(C)C)C(=O)N[C@@H](CC(=O)O)C(=O)N[C@@H](C(=O)N1CCC[C@H]1C(=O)N[C@H](C(=O)N[C@@H](CCCCN)C(=O)N[C@@H](CC(C)C)C(=O)N[C@@H](CCCCNC(=O)COCCOCCNC(=O)COCCOCCNC(=O)CC[C@H](NC(=O)CCCCCCCCCCCCCCCCC(=O)O)C(=O)O)C(=O)N[C@@H](CCC(N)=O)C(=O)N[C@H](C(=O)N[C@@H](CC(C)C)C(=O)N[C@@H](CC(C)C)C(=O)N[C@@H](CCC(=O)O)C(=O)N[C@@H](CCC(N)=O)C(=O)N[C@@H](C)C(=O)N[C@@H](CCCNC(=N)N)C(=O)N[C@@H](CCC(N)=O)C(=O)N[C@@H](CCCCN)C(=O)NC(C)(C)C(=O)N[C@@H](CCC(N)=O)C(=O)N[C@@H](CCCNC(=N)N)C(=O)N[C@@H](CCC(=O)O)C(=O)N[C@@H](CCC(N)=O)C(=O)N[C@@H](C)C(=O)N[C@@H](CCC(=O)O)C(=O)N[C@@H](CCCCN)C(=O)N[C@@H](CC(N)=O)C(=O)N[C@@H](CCC(=O)O)C(=O)N[C@@H](CCC(N)=O)C(=O)N[C@H](C(=O)N[C@@H](CC(C)C)C(=O)N[C@@H](CCC(=O)O)C(=O)N[C@@H](CCC(N)=O)C(=O)N[C@H](C(N)=O)C(C)C)[C@@H](C)CC)[C@@H](C)CC)[C@@H](C)CC)C(C)C)C(C)C
With B1, in the test with rat CRF2R α receptor, the “EC50 [nM], 0% HSA (cAMP, A7R5 cells)” value came out at 2.41 nM. In addition, in test [1], the “EC50[nM] 0% HSA (cAMP, CRF1R-overexpression CHO cells)” value (“EC50[nM] 0% HSA” below) was greater than 1000 nM and the “Emax (%) (cAMP, CRF1R-overexpression CHO cells)” value (“Emax (%)” for short) came out at 26.9%.

B2: peptide of SEQ ID NO: 136 (peptide)
peptide: IVLSLD[dV]PIKLK([AEEA-AEEA-γGlu-C18 diacid])QILLKQERQKK[Aib]RQKAEKNKQILAQV-NH2
modifications: N-terminus assumed
SMILES: CC[C@H](C)[C@H](N)C(=O)N[C@H](C(=O)N[C@@H](CC(C)C)C(=O)N[C@@H](CO)C(=O)N[C@@H](CC(C)C)C(=O)N[C@@H](CC(=O)O)C(=O)N[C@@H](C(=O)N1CCC[C@H]1C(=O)N[C@H](C(=O)N[C@@H](CCCCN)C(=O)N[C@@H](CC(C)C)C(=O)N[C@@H](CCCCNC(=O)COCCOCCNC(=O)COCCOCCNC(=O)CC[C@H](NC(=O)CCCCCCCCCCCCCCCCC(=O)O)C(=O)O)C(=O)N[C@@H](CCC(N)=O)C(=O)N[C@H](C(=O)N[C@@H](CC(C)C)C(=O)N[C@@H](CC(C)C)C(=O)N[C@@H](CCCCN)C(=O)N[C@@H](CCC(N)=O)C(=O)N[C@@H](CCC(=O)O)C(=O)N[C@@H](CCCNC(=N)N)C(=O)N[C@@H](CCC(N)=O)C(=O)N[C@@H](CCCCN)C(=O)N[C@@H](CCCCN)C(=O)NC(C)(C)C(=O)N[C@@H](CCCNC(=N)N)C(=O)N[C@@H](CCC(N)=O)C(=O)N[C@@H](CCCCN)C(=O)N[C@@H](C)C(=O)N[C@@H](CCC(=O)O)C(=O)N[C@@H](CCCCN)C(=O)N[C@@H](CC(N)=O)C(=O)N[C@@H](CCCCN)C(=O)N[C@@H](CCC(N)=O)C(=O)N[C@H](C(=O)N[C@@H](CC(C)C)C(=O)N[C@@H](C)C(=O)N[C@@H](CCC(N)=O)C(=O)N[C@H](C(N)=O)C(C)C)[C@@H](C)CC)[C@@H](C)CC)[C@@H](C)CC)C(C)C)C(C)C
As to B2, the “EC50 [nM], 0% HSA (cAMP, A7R5 cells)” value with rat CRF2R α receptor amounted to 0.38 nM. Further, in test [1], the “EC50[nM] 0% HSA” value was greater than 1000 nM and the “Emax (%)” value was 21.8%.

B3: peptide of SEQ ID NO: 164 (peptide)
peptide: Ac-IVLSLD[dV]PIGLK([AEEA-AEEA-γGlu-C18 diacid])QILLEQERQK[Aib]QREQAEKNKQILEQV-NH2
SMILES: CC[C@H](C)[C@H](NC(C)=O)C(=O)N[C@H](C(=O)N[C@@H](CC(C)C)C(=O)N[C@@H](CO)C(=O)N[C@@H](CC(C)C)C(=O)N[C@@H](CC(=O)O)C(=O)N[C@@H](C(=O)N1CCC[C@H]1C(=O)N[C@H](C(=O)NCC(=O)N[C@@H](CC(C)C)C(=O)N[C@@H](CCCCNC(=O)COCCOCCNC(=O)COCCOCCNC(=O)CC[C@H](NC(=O)CCCCCCCCCCCCCCCCC(=O)O)C(=O)O)C(=O)N[C@@H](CCC(N)=O)C(=O)N[C@H](C(=O)N[C@@H](CC(C)C)C(=O)N[C@@H](CC(C)C)C(=O)N[C@@H](CCC(=O)O)C(=O)N[C@@H](CCC(N)=O)C(=O)N[C@@H](CCC(=O)O)C(=O)N[C@@H](CCCNC(=N)N)C(=O)N[C@@H](CCC(N)=O)C(=O)N[C@@H](CCCCN)C(=O)NC(C)(C)C(=O)N[C@@H](CCC(N)=O)C(=O)N[C@@H](CCCNC(=N)N)C(=O)N[C@@H](CCC(=O)O)C(=O)N[C@@H](CCC(N)=O)C(=O)N[C@@H](C)C(=O)N[C@@H](CCC(=O)O)C(=O)N[C@@H](CCCCN)C(=O)N[C@@H](CC(N)=O)C(=O)N[C@@H](CCCCN)C(=O)N[C@@H](CCC(N)=O)C(=O)N[C@H](C(=O)N[C@@H](CC(C)C)C(=O)N[C@@H](CCC(=O)O)C(=O)N[C@@H](CCC(N)=O)C(=O)N[C@H](C(N)=O)C(C)C)[C@@H](C)CC)[C@@H](C)CC)[C@@H](C)CC)C(C)C)C(C)C
As for B3, the “EC50 [nM], 0% HSA (cAMP, A7R5 cells)” value with rat CRF2R α receptor amounted to 12.6 nM. For the same molecule, in test [1], the “EC50[nM] 0% HSA” value is greater than 1000 nM and the “Emax (%)” value was 25.8%.

B4: peptide of SEQ ID NO: 146 (peptide)
peptide: FTLSLDVPIKLK([AEEA-AEEA-γGlu-C18 diacid])QILLKQERQKKQRQKAKKNKQILERV-NH2
modifications: N-terminus assumed
SMILES: CC[C@H](C)[C@H](NC(=O)[C@H](CCC(N)=O)NC(=O)[C@H](CCCCNC(=O)COCCOCCNC(=O)COCCOCCNC(=O)CC[C@H](NC(=O)CCCCCCCCCCCCCCCCC(=O)O)C(=O)O)NC(=O)[C@H](CC(C)C)NC(=O)[C@H](CCCCN)NC(=O)[C@@H](NC(=O)[C@@H]1CCCN1C(=O)[C@@H](NC(=O)[C@H](CC(=O)O)NC(=O)[C@H](CC(C)C)NC(=O)[C@H](CO)NC(=O)[C@H](CC(C)C)NC(=O)[C@@H](NC(=O)[C@@H](N)Cc1ccccc1)[C@@H](C)O)C(C)C)[C@@H](C)CC)C(=O)N[C@@H](CC(C)C)C(=O)N[C@@H](CC(C)C)C(=O)N[C@@H](CCCCN)C(=O)N[C@@H](CCC(N)=O)C(=O)N[C@@H](CCC(=O)O)C(=O)N[C@@H](CCCNC(=N)N)C(=O)N[C@@H](CCC(N)=O)C(=O)N[C@@H](CCCCN)C(=O)N[C@@H](CCCCN)C(=O)N[C@@H](CCC(N)=O)C(=O)N[C@@H](CCCNC(=N)N)C(=O)N[C@@H](CCC(N)=O)C(=O)N[C@@H](CCCCN)C(=O)N[C@@H](C)C(=O)N[C@@H](CCCCN)C(=O)N[C@@H](CCCCN)C(=O)N[C@@H](CC(N)=O)C(=O)N[C@@H](CCCCN)C(=O)N[C@@H](CCC(N)=O)C(=O)N[C@H](C(=O)N[C@@H](CC(C)C)C(=O)N[C@@H](CCC(=O)O)C(=O)N[C@@H](CCCNC(=N)N)C(=O)N[C@H](C(N)=O)C(C)C)[C@@H](C)CC
As to B4, the “EC50 [nM], 0% HSA (cAMP, A7R5 cells)” value with rat CRF2R α receptor came to 0.22 nM. Also, in test [1], the “EC50[nM] 0% HSA” value is greater than 1000 nM and the “Emax (%)” value amounted to 1.03%.
